In the supplement of paper PMC12764529:
± gives the half width of the 95% confidence interval.

Legend:
[1] = folding stability dG unfold from trypsin proteolysis; higher = more stable
Procedure, shortened: (§1)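 Unfolding free energy was derived, per protease or combined, against a sequence-predicted unfolded-state K50 and a shared folded-state K50, starting from K50 inferred by Bayesian fitting of sequencing counts. Digestion with trypsin and chymotrypsin was carried out on designed mini-proteins under 80 residues without cysteine in a PA-tagged cDNA display construct. Only designs with AlphaFold2 dimer inter-PAE above 15 were kept.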

[2] = folding stability dG unfold (combined trypsin and chymotrypsin); higher = more stable
Procedure, shortened: as §1

[3] = folding stability dG unfold from chymotrypsin proteolysis; higher = more stable
Procedure, shortened: as §1

SAGMPKTTVETEIRFVETEEGIEAVAEVRTETETRVVVIPGHLGPEEAIEVLEKLLEEEGLELSRVEIGSAG [r5_305_TrMRF]
folding stability dG unfold [1]: 0.646 ± 0.032 kcal/mol
folding stability dG unfold [2]: 0.542 ± 0.082 kcal/mol
folding stability dG unfold [3]: 0.353 ± 0.038 kcal/mol

SAGMPVEIPLVIRLTRYRDLPDGPELAEVRELPLPLRADPSELDNPELLAFIREALEKLPDEIREVEIASAG [r5_849_TrMRF]
folding stability dG unfold [1]: -0.255 ± 0.27 kcal/mol
folding stability dG unfold [2]: 0.479 ± 0.17 kcal/mol
folding stability dG unfold [3]: 0.757 ± 0.11 kcal/mol

SAGMSFTVTTVGSPGPTTPRVVIEPPDRVVVISRLPDGSYEVRYYDPSPPVELERRRLAPEEAIAELLSAGG [r19_188_JUSTAS]
folding stability dG unfold [1]: 0.385 ± 0.095 kcal/mol
folding stability dG unfold [2]: 0.575 ± 0.077 kcal/mol
folding stability dG unfold [3]: 0.647 ± 0.098 kcal/mol

SAGMSITIESDTNAPPDLPDIGEEEKLALAEELKEKALADPRYPDEEVVIVRPFKTPGGARWTITVVVSAGG [r19_132_JUSTAS]
folding stability dG unfold [1]: 1.31 ± 0.042 kcal/mol
folding stability dG unfold [2]: 1.32 ± 0.17 kcal/mol
folding stability dG unfold [3]: 1.29 ± 0.24 kcal/mol

SAGMTFTTVTVERPLGSPEGKPVSLEEVEEYAKKVAEELEPNGFPVENITIELLPDGTAVITMTIKKPLSAG [r14_470_JUSTAS]
folding stability dG unfold [1]: 2.03 ± 0.042 kcal/mol
folding stability dG unfold [2]: 1.94 ± 0.056 kcal/mol
folding stability dG unfold [3]: 1.86 ± 0.044 kcal/mol

SAGMTFTVDVEEETFSETKVIRVPVEYDDPALVDVAAAEIREALGIPESESVTVEREPRRATITIVIPASAG [r14_804_JUSTAS]
folding stability dG unfold [1]: 0.267 ± 0.031 kcal/mol
folding stability dG unfold [2]: 0.743 ± 0.051 kcal/mol
folding stability dG unfold [3]: 0.954 ± 0.029 kcal/mol

SAGMTIEVEYTFPPGNPEEAEKRAEEIAEELKPKPLPNITIEISREPVVDPNSDATTTRYTFTITAEPKSAG [r5_49_JUSTAS]
folding stability dG unfold [1]: 0.821 ± 0.051 kcal/mol
folding stability dG unfold [2]: 1.02 ± 0.19 kcal/mol
folding stability dG unfold [3]: 1.19 ± 0.14 kcal/mol

SAGMTITLDGVEITVERVRDEETGEWYYRVTVTVTTEDGEKVTITVTVPEGMTPEQVEALARELAEALASAG [r5_704_TrROS_Hall]
folding stability dG unfold [1]: 5.12 ± 0.42 kcal/mol
folding stability dG unfold [2]: 4.54 ± 0.19 kcal/mol
folding stability dG unfold [3]: 4.37 ± 0.096 kcal/mol

SAGMTITVESLEDALALAEELAEKYPGLKVTVEVRLSPDGKTVEVRVTIEPAPPVKVVDPETGEEVEEESAG [r5_870_TrROS_Hall]
folding stability dG unfold [1]: 3.72 ± 0.36 kcal/mol
folding stability dG unfold [2]: 3.43 ± 0.3 kcal/mol
folding stability dG unfold [3]: 2.3 ± 0.12 kcal/mol

SAGMTITVPGNVTVNVVITAYKFDENGNLIGPYTLVKPITVPENSTITIDLPNDEPNVVIIEIKAIPASAGG [r19_295_TrMRF]
folding stability dG unfold [1]: 3.16 ± 0.15 kcal/mol
folding stability dG unfold [2]: 4.42 ± 0.18 kcal/mol
folding stability dG unfold [3]: 4.81 ± 0.073 kcal/mol

SAGMTLTVVLPVPEEMTEEEAAEILRAYVDAVVAELLAGDAVAVPKEIVVDKETGTAVAKVELFIPPDLSAG [r5_146_TrMRF]
folding stability dG unfold [1]: 2.59 ± 0.064 kcal/mol
folding stability dG unfold [2]: 2.58 ± 0.068 kcal/mol
folding stability dG unfold [3]: 2.56 ± 0.027 kcal/mol

SAGMTQTLEVSGPSVKVTLTVAPDGSVTITTTDPNGNTTTTSLYVPPGVPVTIPLPFGGTTITATVTPASAG [r5_237_JUSTAS]
folding stability dG unfold [1]: 2.38 ± 0.087 kcal/mol
folding stability dG unfold [2]: 2.36 ± 0.09 kcal/mol
folding stability dG unfold [3]: 2.11 ± 0.071 kcal/mol

SAGMTSVLTLEEVSPEELRAKIDEALATLPEGTIFVLPSEELAEVVKELHPGVPVVVRDEATGRLTEVGSAG [r5_391_JUSTAS]
folding stability dG unfold [1]: 1.17 ± 0.041 kcal/mol
folding stability dG unfold [2]: 1.5 ± 0.086 kcal/mol
folding stability dG unfold [3]: 1.67 ± 0.1 kcal/mol

SAGMTTEKSPSGVGRVYLPTRTLELELLPDGTVVLRFPDGTEVVHPLSPEEAAAVRAELRARGLVVRPLSAG [r5_753_JUSTAS]
folding stability dG unfold [1]: 1.59 ± 0.062 kcal/mol
folding stability dG unfold [2]: 1.7 ± 0.1 kcal/mol
folding stability dG unfold [3]: 1.81 ± 0.092 kcal/mol

SAGMTTTVTLKAPDGTTATVTIPPDGNAVMTIETPEGTSTRTVPVPADVSIEEILKEYPNYTIVSREAASAG [r5_259_JUSTAS]
folding stability dG unfold [1]: 1.26 ± 0.037 kcal/mol
folding stability dG unfold [2]: 1.82 ± 0.041 kcal/mol
folding stability dG unfold [3]: 2.05 ± 0.021 kcal/mol

SAGMTVTFTLDFPANGGPITITVYHGDKAEEITVPKNETVTITVDLDPNDGLTIRAHYPDGSYVEFPIGSAG [r5_187_TrMRF]
folding stability dG unfold [1]: 3.46 ± 0.16 kcal/mol
folding stability dG unfold [2]: 4.5 ± 0.09 kcal/mol
folding stability dG unfold [3]: 4.65 ± 0.053 kcal/mol

SAGMTVTVTLNYPTPGGPVTVRVLRGDEEEVVTVPPTETLTITVTLDPDSGATIEVFFPDGSSKTYPLGSAG [r5_187_JUSTAS]
folding stability dG unfold [1]: 2.81 ± 0.1 kcal/mol
folding stability dG unfold [2]: 3.35 ± 0.18 kcal/mol
folding stability dG unfold [3]: 3.76 ± 0.14 kcal/mol

SAGMTYTEKVFTSEVTLPEIGAKITITTTVKTPPSGETEPTVEVTFDLPETASEEVVKAVLEELNIPVESAG [r5_486_JUSTAS]
folding stability dG unfold [1]: -0.411 ± 0.2 kcal/mol
folding stability dG unfold [2]: 0.628 ± 0.38 kcal/mol
folding stability dG unfold [3]: 1.13 ± 0.066 kcal/mol

SAGMVEITVEVKEDGTVIVTIPATSPEEALEVAEEVARELAKQFGAEHTEFVIEPVPDDTLVLLVPIKKSAG [r5_772_TrMRF]
folding stability dG unfold [1]: 0.389 ± 0.065 kcal/mol
folding stability dG unfold [2]: 0.874 ± 0.23 kcal/mol
folding stability dG unfold [3]: 1.26 ± 0.11 kcal/mol

SAGMVEVSVTVSPRADGTITVTITLTKTFPVKDSKGNLYLETTTKTVTVPVTSLEEAPVIVKEVIDKLSAGG [r19_218_JUSTAS]
folding stability dG unfold [1]: 3.82 ± 0.19 kcal/mol
folding stability dG unfold [2]: 3.54 ± 0.15 kcal/mol
folding stability dG unfold [3]: 3.23 ± 0.14 kcal/mol

SAGMVIPYKELKKNLSEEELIELAKEAAEKLGYKPKKIEIKETPEPDKYIVIDVIDENGNKHPIVFPSKSAG [r5_745_TrMRF]
folding stability dG unfold [1]: 0.69 ± 0.036 kcal/mol
folding stability dG unfold [2]: 0.542 ± 0.088 kcal/mol
folding stability dG unfold [3]: 0.374 ± 0.17 kcal/mol

SAGMVKIEIEKKEDGEILITITAPSEEELKKLAEELAKELAKKLGIEEIEVKVEKLENGEYKVTIRIKKSAG [r5_772_TrROS_Hall]
folding stability dG unfold [1]: 2.99 ± 0.14 kcal/mol
folding stability dG unfold [2]: 2.99 ± 0.23 kcal/mol
folding stability dG unfold [3]: 3.09 ± 0.26 kcal/mol

SAGMVLKITVKDKKTKEEREIVIEIPEDDPELKKLGIKSPEELAKKLAEELKKEGIEVEEVKVEAYPLPSAG [r5_722_TrROS_Hall]
folding stability dG unfold [1]: 1.23 ± 0.096 kcal/mol
folding stability dG unfold [2]: 1.78 ± 0.25 kcal/mol
folding stability dG unfold [3]: 2.04 ± 0.084 kcal/mol

SAGMVTITVETTDPQGNWTTKTYEFPLDPGYSLDDVIKRHSPPNAKKYEVTKTEPPPPVTEIKLTVEPSSAG [r5_227_JUSTAS]
folding stability dG unfold [1]: 0.698 ± 0.082 kcal/mol
folding stability dG unfold [2]: 0.822 ± 0.46 kcal/mol
folding stability dG unfold [3]: 1.1 ± 0.19 kcal/mol

SAGMVVENPGTETRVVFDPETGELYVEVGDKVYRIPLPPGVEVEFEVDPEAGTIRVYFPNTGEVLELPLSAG [r5_858_TrMRF]
folding stability dG unfold [1]: 4.19 ± 0.13 kcal/mol
folding stability dG unfold [2]: 3.63 ± 0.051 kcal/mol
folding stability dG unfold [3]: 3.38 ± 0.042 kcal/mol

SAGMVVVKVTLPGPEEALRAAAAAVPVPVSIERDPEKPDVWTATITFPSPELAPVFVEAFAALGAEVVGSAG [r14_745_JUSTAS]
folding stability dG unfold [1]: 1.96 ± 0.041 kcal/mol
folding stability dG unfold [2]: 1.69 ± 0.069 kcal/mol
folding stability dG unfold [3]: 1.29 ± 0.041 kcal/mol

SAGNAKEIAKKIKIRIREFFAERFGFPDVEIDSVTIKDVDPKNGRVRVNITWWWPNGRPWKHEIEIPVDSAG [r5_20_TrROS]
folding stability dG unfold [1]: 2.38 ± 0.048 kcal/mol
folding stability dG unfold [2]: 2.43 ± 0.11 kcal/mol
folding stability dG unfold [3]: 2.43 ± 0.072 kcal/mol

SAGNDEEDQKKAEEQQKPPLEIEPIRVMVMVPFPGGDLLISITIPIIKYPDGGIIIPIPIEIIPLEDISAGG [r19_11_TrROS]
folding stability dG unfold [1]: 2.06 ± 0.093 kcal/mol
folding stability dG unfold [2]: 2.5 ± 0.1 kcal/mol
folding stability dG unfold [3]: 2.84 ± 0.085 kcal/mol

SAGNFNIKEQKETDGRRVIEIPMPGSGHEITIVFERNPDGPRKININMNGPMADYLREALPGIDRVEIISAG [r5_933_TrROS]
folding stability dG unfold [1]: 0.187 ± 0.31 kcal/mol
folding stability dG unfold [2]: 0.213 ± 0.22 kcal/mol
folding stability dG unfold [3]: 0.275 ± 0.26 kcal/mol

SAGNIKIEDIEPNDDYYTLVIKAPENGRTIMIQYNPNNNRIPIMIFPPGGVRTIPIPMNDIEDFLKEILSAG [r5_769_TrROS]
folding stability dG unfold [1]: 0.79 ± 0.086 kcal/mol
folding stability dG unfold [2]: 0.893 ± 0.22 kcal/mol
folding stability dG unfold [3]: 0.903 ± 0.049 kcal/mol

SAGNITIEWEEYEDYRVIKITIPYKSPQQAPEEIESIIRKLGFPPNMKIEDIEVDPEEGHVEITIYIKSAGG [r19_186_TrROS]
folding stability dG unfold [1]: 3.85 ± 0.12 kcal/mol
folding stability dG unfold [2]: 4.47 ± 0.085 kcal/mol
folding stability dG unfold [3]: 4.65 ± 0.083 kcal/mol

SAGNKIEIEPVNYEPMPNGYYRVTARVTIENPNNKKPWDIDVEAYYPMDPNGQPMNVDEIAKEAIKKIFSAG [r5_604_TrROS]
folding stability dG unfold [1]: 0.624 ± 0.098 kcal/mol
folding stability dG unfold [2]: 1.07 ± 0.24 kcal/mol
folding stability dG unfold [3]: 1.36 ± 0.11 kcal/mol

SAGNPVLLKRPFIDPENGEPVYELTLFDPESNIVTTLFFNSDGKVIAVAVAYVPPETDEVDIELSVFDGSAG [r5_747_TrMRF]
folding stability dG unfold [1]: 1.52 ± 0.053 kcal/mol
folding stability dG unfold [2]: 1.47 ± 0.062 kcal/mol
folding stability dG unfold [3]: 1.36 ± 0.099 kcal/mol

SAGNRYEVNLTYMYPPDDPGLIEKIKKILRKLGWEIEKVKEQRMPDNKMRMVTHKIRIPGLPPEALKAFSAG [r14_956_TrROS]
folding stability dG unfold [1]: 0.918 ± 0.16 kcal/mol
folding stability dG unfold [2]: 1.31 ± 0.37 kcal/mol
folding stability dG unfold [3]: 1.27 ± 0.23 kcal/mol

SAGNVIVVVNPETGEVVVVSFDELVRIVAVSSKTLVPEVRDVPRDKVLDFIKEAFPGPVEILEIKPAPVSAG [r5_519_TrMRF]
folding stability dG unfold [1]: 1.02 ± 0.043 kcal/mol
folding stability dG unfold [2]: 1.19 ± 0.053 kcal/mol
folding stability dG unfold [3]: 1.22 ± 0.05 kcal/mol

SAGPADPGFLGTRTVPHPDGVVTVDVYRFAGTRVLITITLPDSTVPVEDPVESEEEALAFADAVVAEVGLSA [r9_758_JUSTAS]
folding stability dG unfold [1]: 0.637 ± 0.081 kcal/mol
folding stability dG unfold [2]: 1.66 ± 0.1 kcal/mol
folding stability dG unfold [3]: 2.27 ± 0.037 kcal/mol
